Test results as given in patent US20150368338A1 (Janssen / Centocor, published 2015).
Substitutions are numbered along the chain they refer to.

B1: IFWM3379 (antibody, IgG1, V domains shown)
VH: EVQLVQSGAEVKKPGESLKISCKGSGYSFTSYWIGWVRQMPGKGLEWMGIIDPSDSDTRYSPSFQGQVTISADKSISTAYLQWSSLKASDTAMYYCARHPGLAWAPDFDYWGQGTLVTVSS
VL: DIQMTQSPSSLSASVGDRVTITCRASQSIDGSLNWYQQKPGKAPKLLIYFASSLQSGVPSRFSGSGSGTDFTLTISSLQPEDFATYYCQQSYDFPLTFGQGTKVEIK
notes: mAb; IgG1/kappa said of the parent and of selected mAbs; also called IFWB3114
B2: IFWM3401 (antibody, IgG1, V domains shown)
VH: B1 VH
VL: B1 VL with D30T, G31N, S32H, S91A, Y92H, D93N
notes: mAb; IgG1/kappa said of the parent and of selected mAbs; also called IFWB3136
B3: IFWM3380 (antibody, IgG1, V domains shown)
VH: B1 VH
VL: B1 VL with D30N, G31R, S32F, F50A, S91A, Y92I, F94L, L96F
notes: mAb; IgG1/kappa said of the parent and of selected mAbs; also called IFWB3115
B4: IFWM3293 (antibody, IgG1, V domains shown)
VH: B1 VH
VL: B1 VL with G31E, S32F, S91A, Y92H, D93S
notes: mAb; IgG1/kappa said of the parent and of selected mAbs; also called IFWB3028
B5: IFWM3381 (antibody, IgG1, V domains shown)
VH: B1 VH
VL: B1 VL with D30G, G31S, S32F, D93S, F94I, L96I
notes: mAb; IgG1/kappa said of the parent and of selected mAbs; also called IFWB3116
B6: IFWM3382 (antibody, IgG1, V domains shown)
VH: B1 VH
VL: B1 VL with D30G, G31S, S32A
notes: mAb; IgG1/kappa said of the parent and of selected mAbs; also called IFWB3117
B7: IFWM3328 (antibody, V domains shown)
VH: B1 VH with A103N
VL: DIQMTQSPSSLSASVGDRVTITCRASQSINNLNWYQQKPGKAPKLLIYWASSLQSGVPSRFSGSGSGTDFTLTISSLQPEDFATYYCQQGYDTPFTFGQGTKVEIK
notes: VH IFWH591, VL IFWL1064; converted mAb; also called IFWB3063
B8: IFWM3332 (antibody, V domains shown)
VH: B1 VH with A103N
VL: DIQMTQSPSSLSASVGDRVTITCRASQSIANTNLNWYQQKPGKAPKLLIHWASSLQSGVPSRFSGSGSGTDFTLTISSLQPEDFATYYCQQWYDNPLTFGQGTKVEIK
notes: VH IFWH591, VL IFWL1074; converted mAb; also called IFWB3067
B9: IFWM3335 (antibody, V domains shown)
VH: B1 VH with A103N
VL: B7 VL with N31Y, W49G, G90S, Y91H, T93W, F95I
notes: VH IFWH591, VL IFWL1084; converted mAb; also called IFWB3070
B10: IFWM3338 (antibody, V domains shown)
VH: B1 VH with A103N
VL: B8 VL with A30R, W92G, N95T, L97F
notes: VH IFWH591, VL IFWL1091; converted mAb; also called IFWB3073
B11: IFWM3334 (antibody, V domains shown)
VH: B1 VH with A103N
VL: B8 VL with A30R, T32N, N33S, H50Y, W51A, W92D, D94N, N95W
notes: VH IFWH591, VL IFWL1082; converted mAb; also called IFWB3069
B12: IFWM3336 (antibody, V domains shown)
VH: B1 VH with A103N
VL: B8 VL with A30R, T32N, N33Y, H50Y, W51A, W92G, N95T
notes: VH IFWH591, VL IFWL1085; converted mAb; also called IFWB3071
B13: IFWM3339 (antibody, V domains shown)
VH: B1 VH with A103N
VL: B8 VL with T32N, N33D, W92D, N95W
notes: VH IFWH591, VL IFWL1093; converted mAb; also called IFWB3074
B14: IFWM3337 (antibody, V domains shown)
VH: B1 VH with A103N
VL: B8 VL with A30S, T32S, N95H
notes: VH IFWH591, VL IFWL1087; converted mAb; also called IFWB3072
B15: IFWM3333 (antibody, V domains shown)
VH: B1 VH with A103N
VL: B8 VL with A30D, T32N, H50Y, W51A, W92G, N95W
notes: VH IFWH591, VL IFWL1076; converted mAb; also called IFWB3068

Each binder was assayed against T1, IFN-α4a (human, UniProt P05014 24-189) (assay: ProteOn SPR, cell supernatant;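 note: each binding measurement used just a single antigen concentration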).
T1 construct: Recombinant, HEK293; also called IFN-αM1
Excerpt: (§1) To increase the assay throughput, only one concentration of the individual antigen was used.

Row | Binder | Kd [pM]
1 | B1 | 72
2 | B2 | 195
3 | B3 | 88
4 | B4 | 166
5 | B5 | 171
6 | B6 | 75

These binders were tested against T2, IFN-αJ1 (human, UniProt P01567 24-189) (assay: ProteOn SPR, cell supernatant;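 note: each binding measurement used just a single antigen concentration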).
T2 construct: Recombinant, HEK293; also called IFN-α7
Excerpt: as §1

Row | Binder | Kd [pM]
7 | B1 | 33
8 | B2 | 78
9 | B3 | 76
10 | B4 | 62
11 | B5 | 121
12 | B6 | 37

These binders were tested against T3, IFN-αG (human, UniProt P01569 24-189) (assay: ProteOn SPR, cell supernatant;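 note: each binding measurement used just a single antigen concentration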).
T3 construct: Recombinant, HEK293; also called IFN-α5
Excerpt: as §1

Row | Binder | Kd [pM]
13 | B1 | 13
14 | B2 | 67
15 | B3 | 70
16 | B4 | 37
17 | B5 | 53
18 | B6 | 30

These binders were tested against T4, IFN-αC (human, UniProt P01566 24-189) (assay: ProteOn SPR, cell supernatant;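 note: each binding measurement used just a single antigen concentration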).
T4 construct: Recombinant, HEK293; also called IFN-α10
Excerpt: as §1

Row | Binder | Kd [pM]
19 | B1 | 13
20 | B3 | 46
21 | B4 | 25
22 | B5 | 79
23 | B6 | 24

These binders were tested against T5, IFN-αWA (human, UniProt P05015 24-189) (assay: ProteOn SPR, cell supernatant;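 note: each binding measurement used just a single antigen concentration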).
T5 construct: Recombinant, HEK293; also called IFN-α16
Excerpt: as §1

Row | Binder | Kd [pM]
24 | B1 | 23
25 | B2 | 76
26 | B3 | 59
27 | B4 | 46
28 | B5 | 67
29 | B6 | 32

Biological target: T6, IFN-αF (human, UniProt P01568 24-189)
T6 construct: Recombinant, HEK293; also called IFN-α21
T6 chain: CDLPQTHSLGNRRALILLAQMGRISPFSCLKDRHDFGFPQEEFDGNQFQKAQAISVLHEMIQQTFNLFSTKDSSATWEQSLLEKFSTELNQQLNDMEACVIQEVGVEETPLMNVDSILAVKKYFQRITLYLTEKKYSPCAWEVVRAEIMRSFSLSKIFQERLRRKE
Assay: ProteOn SPR, cell supernatant;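 note: each binding measurement used just a single antigen concentration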
Excerpt: as §1

Row | Binder | Kd [pM]
30 | B1 | 13
31 | B2 | 28
32 | B3 | 32
33 | B4 | 17
34 | B5 | 92
35 | B6 | 20

These binders were tested against T7, human IFN-ω (human, UniProt P05000 24-195) (assay: ProteOn SPR, cell supernatant).
T7 construct: Recombinant, HEK293; also called interferon omega
Excerpt: as §1

Row | Binder | Kd [pM]
36 | B1 | 15
37 | B2 | 62
38 | B3 | 25
39 | B4 | 29
40 | B5 | 45
41 | B6 | 30

These binders were tested against T8, IFN-αG (human, UniProt P01569 24-189) (assay: ProteOn, one antigen concentration).
T8 construct: also called IFN-α5; alpha G
Excerpt: as §1

Row | Binder | Kd [pM]
42 | B7 | 72
43 | B8 | 50
44 | B9 | 77
45 | B10 | 46
46 | B11 | 941
47 | B12 | 51
48 | B13 | 79
49 | B14 | 34
50 | B15 | 77

Biological target: T9, IFN-αF (human, UniProt P01568 24-189)
T9 construct: also called IFN-α21; alpha F
T9 chain: T6 chain
Assay: ProteOn, one antigen concentration
Excerpt: as §1

Row | Binder | Kd [pM]
51 | B7 | 91
52 | B8 | 54
53 | B9 | 61
54 | B10 | 64
55 | B11 | 5210
56 | B12 | 61
57 | B13 | 65
58 | B14 | 16
59 | B15 | 89

The binders below were run against T10, IFN-αC (human, UniProt P01566 24-189) (assay: ProteOn, one antigen concentration).
T10 construct: also called IFN-α10; alpha C
Excerpt: as §1

Row | Binder | Kd [pM]
60 | B7 | 99
61 | B8 | 31
62 | B9 | 49
63 | B10 | 46
64 | B11 | 620
65 | B12 | 47
66 | B13 | 59
67 | B14 | 17
68 | B15 | 65

The binders below were run against T11, IFN-α4a (human, UniProt P05014 24-189) (assay: ProteOn, one antigen concentration).
T11 construct: also called IFN-αM1
Excerpt: as §1

Row | Binder | Kd [pM]
69 | B7 | 410
70 | B8 | 139
71 | B9 | 336
72 | B10 | 319
73 | B11 | 744
74 | B12 | 235
75 | B13 | 235
76 | B14 | 91
77 | B15 | 477

These binders were tested against T12, IFN-αWA (human, UniProt P05015 24-189) (assay: ProteOn, one antigen concentration).
T12 construct: also called IFN-α16; alpha WA
Excerpt: as §1

Row | Binder | Kd [pM]
78 | B7 | 207
79 | B8 | 76
80 | B9 | 137
81 | B10 | 200
82 | B11 | 517
83 | B12 | 105
84 | B13 | 141
85 | B14 | 37
86 | B15 | 258

Each binder was assayed against T13, IFN-αJ1 (human, UniProt P01567 24-189) (assay: ProteOn, one antigen concentration).
T13 construct: also called IFN-α7; alpha J1
Excerpt: as §1

Row | Binder | Kd [pM]
87 | B7 | 360
88 | B8 | 135
89 | B9 | 245
90 | B10 | 245
91 | B11 | 2400
92 | B12 | 110
93 | B13 | 161
94 | B14 | 71
95 | B15 | 607

What follows are binders tested against T14, human IFN-ω (human, UniProt P05000 24-195) (assay: ProteOn, one antigen concentration).
T14 construct: also called interferon omega
Excerpt: as §1

Row | Binder | Kd [pM]
96 | B7 | 108
97 | B8 | 34
98 | B9 | 42
99 | B10 | 57
100 | B11 | 345
101 | B12 | 19
102 | B13 | 49
103 | B14 | 20
104 | B15 | 53
